Results on 10 molecules are retold here after patent publication US20260207767A1 (ANAVEON, published 2026).

Residue numbers refer to the chain shown, from its start. Numbers in names are those of the source. Where two headings read alike, the source gives them in different places.

Assay [1] concerns the target T1, hPD-1 Avi-Tag Biotin (AcroBiosystems PD1-H82E4) (human, UniProt Q15116 25-167, biotin on Avi-Tag).
T1 construct: bought; also called human PD-1
Kind of assay: SPR, Ab captured, PD-1 analyte. Here is the method: Anti-human Fc IgG (Jackson) was immobilized on amine reactive CM5 chips (GE Healthcare) using 1×HBS-EP+ running buffer (GE Healthcare). The test antibodies were captured at flow rate 10 μl/min with 30 s contact time. […] Regeneration was carried out with 10 mM Glycine-HCl, pH 1.5 at flow rate 10 μL/min. This protocol is to be used, unless stated otherwise, in determination of Kd wherever used to define the KD of antibodies specified herein, with adaptions where necessary with regard to the nature of the interaction partners. […]

For assay [2], the target named is T2, cynoPD-1 His (AcroBiosystems PD1-C5223) (cynomolgus monkey, UniProt B0LAJ3 25-170).
T2 construct: also called cPD-1; cynomolgus PD-1 His-tagged
Kind of assay: SPR; second ka column, taken as cynoPD-1. Here is the method: (§1) Anti-human Fc IgG (Jackson) was immobilized on amine reactive CM5 chips (GE Healthcare) using 1×HBS-EP+ running buffer (GE Healthcare). The test antibodies were captured at flow rate 10 μl/min with 30 s contact time. […] Regeneration was carried out with 10 mM Glycine-HCl, pH 1.5 at flow rate 10 μL/min. This protocol is to be used, unless stated otherwise, in determination of Kd wherever used to define the KD of antibodies specified herein, with adaptions where necessary with regard to the nature of the interaction partners.
Every position in the antibody VH and VL-CDRs was mutated by PCR using a mutagenic primer containing a degenerate codon NNS at a specific CDR position, introducing a combination of all 20 amino acids. The library of single mutants was screened by scFv capture ELISA using a redundancy factor of 4 (on 96-well plate er position). Clones displaying ≥2× ELISA signal compared to the wild-type scFv were sequenced, and clones with unique sequences were re-grown, re-screened by capture ELISA and ranked by dose-dependent ELISA on human and cyno antigens, and by FACS using human antigen expressing cells. Affinity improving mutations were used to design a combinatorial library using the Kunkel method. The library was screened by scFv capture ELISA using the redundancy factor of 4 (4× number of combinations). Clones displaying ≥2× ELISA signal compared to the wild-type scFv were sequenced, and clones with unique sequences were re-grown, re-screened by capture ELISA and ranked by dose-dependent ELISA on human and cyno antigens, and by FACS using human antigen expressing cells.
(In SPR one partner is held on a chip, and binding of the other changes the refractive index at the surface.)

The target in assay [3] is T2, cynoPD-1 His (AcroBiosystems PD1-C5223). Kind of assay: SPR, Ab captured, PD-1 analyte. Here is the method: as §1
Assay [4] has as its target T1, hPD-1 Avi-Tag Biotin (AcroBiosystems …). Kind of assay: SPR, Ab captured, PD-1 analyte. Here is the method: as §1
The source holds these as a separate data set.

Assay [5] has as its target T3, human PD-1 expressed on cells (human, UniProt Q15116 25-288).
T3 construct: whole, on cells; cell line named under assay; also called CHO-S hPD-1; Raji PD-1
Kind of assay: flow cytometry, CHO-S hPD-1. Here is the method:
CHO-S hPD-1 cells were incubated with a 5-fold serial dilution of the indicated humanized antibodies. Antibody binding was detected with goat anti-human IgG-PE. MFI were plotted over the antibody concentration to obtain EC50 values.

Assay [6] deals with T3, human PD-1 expressed on cells. Briefly: flow cytometry, CHO-S hPD-1. This is another data set of the same source.
Assay [7] concerns the target T4, cynomolgus PD-1 expressed on cells (cynomolgus monkey, UniProt B0LAJ3 25-288).
T4 construct: also called CHO-S Cyno-PD-1; 293:cyPD1
Kind of assay: flow cytometry, CHO-S Cyno-PD-1. For orientation: A flow cytometer gives signals particle by particle.

The target of assay [8] is T5, recombinant hPD-1 (construct not stated) (human, UniProt Q15116 25-167, limits assumed).
T5 construct: also called huPD-1; Human PD1
Kind of assay: ELISA.

Assay [9] concerns the target T6, recombinant cynoPD-1 (construct not stated) (cynomolgus monkey, UniProt B0LAJ3 25-170).
T6 construct: not shown: probably His as elsewhere
Briefly: ELISA.

For assay [10], the target named is T2, cynoPD-1 His (AcroBiosystems PD1-C5223). Kind of assay: BLI (legend: SPR), Ab on sensor.
Assay [11] addresses T7, hPD-1 His-tagged (human, UniProt Q15116 25-167).
T7 construct: also called recombinant hPD-1 (AcroBio)
Kind of assay: BLI (legend: SPR), Ab on sensor.

Assay [12] concerns the target T4, cynomolgus PD-1 expressed on cells. Briefly: flow cytometry, HEK293 cyPD1.
For assay [13], the target named is T3, human PD-1 expressed on cells. Briefly: flow cytometry, HEK293 huPD1.

T1 sequence (Q15116 25-167 limits assumed): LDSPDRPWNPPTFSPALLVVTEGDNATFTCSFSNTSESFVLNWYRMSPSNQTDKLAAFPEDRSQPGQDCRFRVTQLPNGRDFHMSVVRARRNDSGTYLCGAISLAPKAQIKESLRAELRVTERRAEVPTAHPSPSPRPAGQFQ
T5 sequence (Q15116 25-167 limits assumed): as above
T7 sequence (Q15116 25-167 limits assumed): as above
T4 sequence (B0LAJ3 entry or part of it limits assumed): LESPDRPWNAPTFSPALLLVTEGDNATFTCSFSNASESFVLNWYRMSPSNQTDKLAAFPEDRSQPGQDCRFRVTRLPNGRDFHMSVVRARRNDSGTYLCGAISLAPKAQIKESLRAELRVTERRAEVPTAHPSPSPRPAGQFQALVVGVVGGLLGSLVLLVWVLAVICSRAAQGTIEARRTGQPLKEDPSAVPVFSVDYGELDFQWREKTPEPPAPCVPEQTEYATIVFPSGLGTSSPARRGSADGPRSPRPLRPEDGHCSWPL
T6 sequence (B0LAJ3 entry or part of it limits assumed): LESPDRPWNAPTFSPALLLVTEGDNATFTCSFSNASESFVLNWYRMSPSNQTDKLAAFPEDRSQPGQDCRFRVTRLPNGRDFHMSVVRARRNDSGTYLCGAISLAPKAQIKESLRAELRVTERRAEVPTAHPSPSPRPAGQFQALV
T3 sequence (Q15116 25-288): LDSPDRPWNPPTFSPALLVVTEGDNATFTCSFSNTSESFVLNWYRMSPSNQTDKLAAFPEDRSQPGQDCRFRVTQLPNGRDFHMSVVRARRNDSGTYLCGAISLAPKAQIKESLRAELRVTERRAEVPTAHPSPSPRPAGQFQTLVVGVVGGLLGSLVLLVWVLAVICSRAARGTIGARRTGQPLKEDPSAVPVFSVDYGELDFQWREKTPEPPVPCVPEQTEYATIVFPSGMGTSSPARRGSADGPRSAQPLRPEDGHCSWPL

B1: z2-XVT458 (antibody, IgG1, V domains shown)
VH: QVQLVQSGAEVKKPGASVKVSCKASGYTFTNFYIHWVRQAPGQGLEWMGSIYPNYGDTAYNQKFKDRVTMTVDTSTSTAYMELRSLRSDDTAVYYCARGYSYAMDYWGQGTTVTVSS
VL: DIQMTQSPSSVSASVGDRVTITCSASQGISGDLNWYQQKPGKAPKLLIYHTSSLHSGVPSRFSGSGSGTDFTLTISSLQPEDFATYYCQYYSKDLLTFGGGTKLEIK
notes: full hIgG1; also called XVT458-z2; GH + T071V
Take B1: the Kd in assay [1] was 12500 pM; in [3], 54200 pM; in [4], 14000 pM. Moreover, the results for the koff in [1], in assay [3] and in assay [4] were 0.00124 s⁻¹, 0.0031 s⁻¹ and 0.00127 s⁻¹, respectively. The kon in [1] is 99200 M⁻¹ s⁻¹; in assay [2], 73000 M⁻¹ s⁻¹; in [3] it was 57200 M⁻¹ s⁻¹; in assay [4] it was 90700 M⁻¹ s⁻¹. Also, the EC50 worked out at 4150 pM in [5], 5860 pM in assay [6], 710 pM in [8] and 400 pM in assay [9]. Moreover, the “Top MFI” value in assay [5] was found to be 45500 MFI. In addition, the “Max MFI” value worked out at 40700 MFI in assay [6] and 109 MFI in [7]. Moreover, the “Max OD” value in [8] is 2.91 OD; in assay [9] it was 3.32 OD.

B2: XVT458-z2-m2 (antibody, V domains shown)
VH: B1 VH with S50R, D57F
VL: B1 VL with S30Y, Y90A
notes: IgG format; also called z2_XVT458m2
As for B2, in [1], the Kd is 1240 pM, the koff turned out to be 0.00019 s⁻¹ and the kon came out at 153000 M⁻¹ s⁻¹. The kon in assay [2] amounted to 127000 M⁻¹ s⁻¹. For the same molecule, in assay [6], the EC50 turned out to be 1150 pM and the “Max MFI” value is 42800 MFI. Moreover, the “Max MFI” value in [7] was found to be 367 MFI. In addition, in assay [8], the EC50 was 76 pM and the “Max OD” value amounted to 3.34 OD. In assay [9], the EC50 worked out at 86 pM and the “Max OD” value came out at 3.56 OD.

B3: XVT458-z2-m1 (antibody, V domains shown)
VH: B1 VH with D57F
VL: B1 VL with S30W, S53Q, G57D, Y90G
notes: IgG format; also called z2-XVT458-m1; z2_XVT458m1
In assay [1], B3 returned a Kd of 148 pM, a koff of 3.28e-05 s⁻¹ and a kon of 222000 M⁻¹ s⁻¹. The kon in assay [2] stood at 185000 M⁻¹ s⁻¹. Further, in assay [6], the EC50 is 1500 pM and the “Max MFI” value came to 41000 MFI. In addition, in assay [7], the “Max MFI” value worked out at 70 MFI. Besides, in assay [8], the EC50 stood at 83 pM and the “Max OD” value worked out at 3.39 OD. Besides, in assay [9], the EC50 amounted to 87 pM and the “Max OD” value worked out at 3.58 OD.

B4: XVT458-z2-m4 (antibody, V domains shown)
VH: B1 VH with S50R, D57I
VL: B1 VL with L54R, Y90G
notes: IgG format; also called z2_XVT458m4
As for B4, in assay [1], binding was put at a Kd of 1220 pM, the koff stood at 0.000173 s⁻¹ and the kon turned out to be 142000 M⁻¹ s⁻¹. The kon in assay [2] came to 134000 M⁻¹ s⁻¹. In [6], it took 960 pM to reach a half-maximal effect (EC50) and the “Max MFI” value came out at 43400 MFI. The “Max MFI” value in assay [7] came to 258 MFI. Also, in [8], the EC50 was 79 pM and the “Max OD” value amounted to 3.3 OD. Also, in [9], the EC50 came to 98 pM and the “Max OD” value stood at 3.54 OD.

B5: XVT458-z2-m3 (antibody, V domains shown)
VH: B1 VH with S50R, D57I
VL: B1 VL with S53Q, L54R, G57D, Y90G
notes: IgG format; also called z2_XVT458m3
B5: in assay [1], the Kd was found to be 417 pM, the koff is 6.57e-05 s⁻¹ and the kon worked out at 158000 M⁻¹ s⁻¹. The kon in [2] was determined as 138000 M⁻¹ s⁻¹. Besides, in assay [6], the EC50 is 1340 pM and the “Max MFI” value was found to be 41100 MFI. Further, the “Max MFI” value in assay [7] stood at 124 MFI. Further, in assay [8], the EC50 was found to be 89 pM and the “Max OD” value amounted to 3.37 OD. In [9], the EC50 stood at 94 pM and the “Max OD” value was found to be 3.54 OD.

B6: XVT458-z2-m6 (antibody, V domains shown)
VH: B1 VH with D57I
VL: B1 VL with S53Q, G57D, Y90G
notes: IgG format; also called z2_XVT458m6
On to B6, for which the affinity in [1], expressed as Kd, was 439 pM. The koff in assay [1] was determined as 0.000101 s⁻¹. For the same molecule, the kon came out at 231000 M⁻¹ s⁻¹ in assay [1] and 213000 M⁻¹ s⁻¹ in assay [2]. For the same molecule, the values for the EC50 in assay [6], in assay [8] and in assay [9] were 1560 pM, 64 pM and 71 pM, respectively. The “Max MFI” value in assay [6] worked out at 39500 MFI; in assay [7], 59 MFI. Also, the “Max OD” value in assay [8] is 3.49 OD; in [9] it was 3.69 OD.

B7: XVT458-z2-m5 (antibody, V domains shown)
VH: B1 VH with S50R, D57I
VL: B1 VL with S30Y, L54R, Y90A
notes: IgG format; also called z2_XVT458m5
In assay [1], B7 yielded a Kd of 787 pM, a koff of 9.77e-05 s⁻¹ and a kon of 124000 M⁻¹ s⁻¹. For the same molecule, in assay [2], the kon stood at 111000 M⁻¹ s⁻¹. Besides, in assay [6], the EC50 was 840 pM and the “Max MFI” value turned out to be 42400 MFI. The “Max MFI” value in assay [7] amounted to 335 MFI. Moreover, in assay [8], the EC50 stood at 51 pM and the “Max OD” value was determined as 3.42 OD. Moreover, in assay [9], the concentration for a half-maximal effect (EC50) stood at 56 pM and the “Max OD” value worked out at 3.58 OD.

B8: 20H02 (antibody, V domains shown)
VH: EVLLVESGGGLVQPGGSLRLSCAASGFTFSSYSMNWVRQAPGKGLEWVSFISSSSPTLYYADSVKGRFTISRDNAKNSLYLQMNSLRDEDTAVYYCARQGLTPFDYWGQGTLVTVSS
VL: EIVMTQSPATLSVFPGERATLSCRASQSVSSYLAWYQQKPGQAPRLLIYGASTRATGIPARVSGSGSGTEFILTISSLQSEDFAVYYCQQYNNWPYTFGQGTKLEIK
notes: used with CH1,2,3 and corresponding CL
B8: the Kd in assay [10] was determined as 6390 pM; in assay [11], 2430 pM. Also, the koff in [10] was 0.000463 s⁻¹; in [11], 0.000221 s⁻¹. Moreover, the results for the kon in assay [10] and in [11] were 72500 M⁻¹ s⁻¹ and 90900 M⁻¹ s⁻¹, respectively. Moreover, the EC50 in assay [12] was 231 pM; in [13], 503 pM.

B9: 25I20 (antibody, V domains shown)
VH: EVQLLESGGNLVQPGGSLRLSCAASGFTFSTYAMSWVRQAPGKGLEWVSTISGTGYSTYFADSVKGRFTISRDNSKNTLFLQMNSLRAEDTAVYYCAKEVYGDYWGQGTLVTVSS
VL: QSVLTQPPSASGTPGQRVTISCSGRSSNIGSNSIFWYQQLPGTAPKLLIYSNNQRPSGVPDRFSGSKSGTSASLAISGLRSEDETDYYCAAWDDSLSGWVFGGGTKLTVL
notes: used with CH1,2,3 and corresponding CL; also called 25120
Turning to B9, the Kd in assay [10] was found to be 8380 pM; in assay [11], 1150 pM. The koff in [10] came to 0.000783 s⁻¹; in assay [11] it was 0.000101 s⁻¹. The kon in assay [10] amounted to 93400 M⁻¹ s⁻¹; in assay [11], 87500 M⁻¹ s⁻¹. The values for the EC50 in [12] and in assay [13] were 310 pM and 179 pM, respectively.

B10: 22F13 (antibody, V domains shown)
VH: EVQLLESGGGLVQPGGSLRLSCAASGFTFSISAMTWVRQAPGKGLEWVSTISGSGGSTYYSDSVKGRFTISRDNSKNTLYLQINSLRADDTAVYYCAKEVYGDYWGQGTLVTVSS
VL: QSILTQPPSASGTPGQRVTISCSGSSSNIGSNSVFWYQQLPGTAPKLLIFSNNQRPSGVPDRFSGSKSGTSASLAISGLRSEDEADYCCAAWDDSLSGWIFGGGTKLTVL
notes: as for B8
In assay [10], B10 displayed a Kd of 8450 pM, a koff of 0.000838 s⁻¹ and a kon of 99200 M⁻¹ s⁻¹. In assay [11], this molecule came in with a Kd of 1410 pM, a koff of 0.000132 s⁻¹ and a kon of 94000 M⁻¹ s⁻¹. In addition, the EC50 in [12] is 107 pM. The EC50 in assay [13] came out at 200 pM.

A word on the Kd: it is the free concentration of one partner at which half of the binding sites on the other are occupied at equilibrium, for simple one-to-one binding. For orientation: koff means the rate constant with which the complex falls apart. A higher koff goes with a short-lived complex. What is called kon is a measure of how fast the partners come together. A word on the EC50: it is the concentration that produces a half-maximal response.
